Reference: patent US7803351B2, “Blood brain barrier permeation peptides” (priority 2004, dated 2010)
Like-named read-outs stand apart in the source and are kept apart here. Numbered stars: 1 amine (or outer) side, 2 acyl side, 3 side chain; on linkers, the order of the positions; unused ones are H or OH. Square brackets hold non-standard residues; d marks the D form. Ends that are not written are not given here. * marks the point of attachment. Fluorescein(5-Mal) = O=C1OC2(c3ccc(O)cc3Oc3cc(O)ccc32)c2ccc(N3C(=O)CC(*)C3=O)cc21; εLys = N[C@@H](CCCCN[*:1])C(=O)[*:2]

Assays:
[1] = tested on: amyloid plaques in brain sections; assay: Staining of brain tissue sections of APPsw+/− and WT mice; parameters: species or system mouse; settings: 40 μm sections
Source text: Staining experiments with cross sections of brain tissue from normal (WT) and APPsw+/− mice are suitable for evaluating target specificity of the peptide conjugate. For example, a candidate peptide conjugate is labeled with a fluorescent marker. A suitable marker is fluorescein-5-maleimide (FM; 3-equiv) in DMF, which labels the C-terminal thiol of the peptide. After a suitable reaction of peptide and FM at room temperature in the dark, the fluorescent-labeled peptide is purified, for example column-purified, requisite fraction eluted, combined, lyophilized and characterized through electron spray mass spectrometry. For tissue staining of brain sections of APPsw+/− mice (test) and WT mice (control), immunohistochemical staining of Aβ and for FM-peptide staining are performed according to published procedures (DeMattos et al., 2002; Holtzman et al., 2000). Rabbit-anti-pan Aβ antibody is used, for example, as a control, and visualized with anti-rabbit antibody conjugated with a fluorescent marker such as Alexa 568 (Molecular Probes). Staining of brain sections from normal and APPsw+/− mice are compared. Target specificity of the peptide is indicated by immunostaining of Aβ in APPsw+/− mice and no staining in WT mice.
Staining experiments with cross sections of brain tissue were also performed. […]

[2] = target: T1, preformed Aβ 1-40 aggregates (Homo sapiens, UniProt P05067); assay: Competitive binding of ^99mTc-peptide to preformed Aβ 1-40 aggregates with unlabeled competitor; settings: 1,000-fold molar excess of competitor
T1 construct: preformed Aβ 1-40 aggregates; purchased
Experimental: Binding assays are performed to determine the binding specificity of the peptide conjugate. For example, a preliminary radioassay of Aβ-binding is performed. For example, a conjugate consisting of radiolabeled ^99mTc-peptide conjugate is incubated with Aβ fibrils in PBS for about 1-3 hours. Bound ^99mTc-peptide conjugate is separated on a Centricon filter unit (with, for example a 100 KDa cut off) and washed several times with PBS buffer. Saturable binding is indicated by calculation of a Kd (affinity constant) as well known in the art to help evaluate the relative amount of specific binding as opposed to non-specific binding. […] Radiolabeled peptide conjugate that is displaceable to background with either 1,000-fold molar excess of unlabeled peptide conjugate or, for example, cold Re-peptide conjugate, supports receptor-like binding behavior of the peptide conjugate to Aβ fibrils. Binding of the lead ^99mTc-peptide to preformed Aβ 1-40 aggregates in presence of increasing equivalents of unlabeled competing peptide. The aggregate-bound ^99mTc-peptide was isolated from free labeled peptide by centrifugation using Centricon (100 kDa cutoff) filters. The concentration of aggregate bound ^99mTc-peptide was calculated on the basis of activity retained on the filters (FIG. 5). […] Each data point represents a mean of triplicate measurements.

[3] = Acute toxicity in mice after intravenous bolus injection; format: in vivo; settings: Balb/C male mice, intravenous bolus 14 mg/kg, up to several days post-injection
Experimental: Although absolute concentration of radiotracers in vivo is normally too low to cause any host toxicity, nevertheless host safety is a key determinant for any successful diagnostic agent. Therefore, using a Re-labeled peptide as a surrogate for a Tc-labeled peptide, acute toxicity in mice (Balb/C; male; 6-8wks old) was determined.

RBE4 cell monolayers [4] = tested on: RBE4 cell monolayers
[5] = target: T2, Aβ 1-40 aggregates (Aβ fibrils) (Homo sapiens, UniProt P05067); assay: Binding assay of ^99mTc-peptide with Aβ fibrils (Centricon filter separation); settings: PBS, RT, 90 min, mean of triplicate; read-out: Kd (saturable binding to Aβ fibrils)
T2 construct: preformed Aβ 1-40 aggregates; purchased
Experimental: Binding assays are performed to determine the binding specificity of the peptide conjugate. For example, a preliminary radioassay of Aβ-binding is performed. For example, a conjugate consisting of radiolabeled ^99mTc-peptide conjugate is incubated with Aβ fibrils in PBS for about 1-3 hours. Bound ^99mTc-peptide conjugate is separated on a Centricon filter unit (with, for example a 100 KDa cut off) and washed several times with PBS buffer. Saturable binding is indicated by calculation of a Kd (affinity constant) as well known in the art to help evaluate the relative amount of specific binding as opposed to non-specific binding. […]
Binding assays of ^99mTc-peptide with Aβ fibrils were performed in PBS. […] The concentration of aggregate-bound ^99mTc-peptide was calculated on the basis of activity retained on the filters. […]
Binding assays to preformed fibrils are performed using procedures as described in the literature (Klunk et al., 2001). […] The amount of activity incorporated in the fibrils is measured through γ-counting using previously published procedures (Zhen et al., 1999). […] The mixture is incubated at room temperature for 1.5 h, and the aggregate-bound ^99mTc-peptide and free radioactivity is separated by filtration through Centricon filtration units using a centrifuge. The aggregate-bound ^99mTc-peptide collected on filters is counted in a γ-counter. […]

RBE4 cell monolayers [6] = assay: Transwell transendothelial transport across RBE4 cell monolayers (in vitro BBB model); settings: apical to basolateral and basolateral to apical, up to 120 minutes

Sequence of amyloid plaques in brain sections (P05067 672-711 limits assumed): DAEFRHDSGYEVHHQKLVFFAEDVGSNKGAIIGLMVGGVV
T2 sequence (P05067 672-711): as the sequence (P05067 672-711 limits assumed) above
T1 sequence (P05067 672-711): as the sequence (P05067 672-711 limits assumed) above

Aβ-binding peptide coupled with FM: peptide labeled on the C-terminal thiol with fluorescein-5-maleimide (FM) (KKLVFFAKGC(Fluorescein(5-Mal)); not fully specified (residues 7, 8); printed as KKLVFFAεKGC)
staining of Aβ plaques in brain sections of APPsw+/− mice ([1]; APPsw+/− mouse, 17 months old, FM-peptide 2 μM solution): staining of plaques in the cortical region | staining in brain sections of WT mice ([1]; control WT mouse (Bl/6; 13.5 months old)): no staining

Re-peptide: rhenium complex of peptide KKLVFFAεKGC, surrogate for the Tc-labeled peptide (KKLVFFA[εLys]GC; not fully specified (residue 7); printed as KKLVFFAεKGC; also: rhenium complex (peptide-based chelation core))
displacement of aggregate-bound ^99mTc-peptide by competitor [2]: displaceable to background conditions | acute toxicity [3]: nontoxic

^3H-Aβ1-40 peptide: full length tritiated Aβ1-40 peptide (SEQ. ID. NO.: 2)
transwell transport / permeation across RBE4 cells (RBE4 cell monolayers [4]): did not show any transwell transport

^99mTc-peptide: peptide KKLVFFAεKGC (SEQ. ID. NO.: 1) radiolabeled with technetium-99m in its peptide-based chelation core (KKLVFFAKGC; not fully specified; conjugate chemistry not built)
Kd [5]: 352 ± 82 nM

inulin [^14C-inulin]
transwell transport / permeation across RBE4 cells (RBE4 cell monolayers [6]): low transwell transport
